The text below walks through data of the supplement of paper PMC9112550, “Optimization of the antimicrobial peptide Bac7 by deep mutational scanning” (BMC Biology, 2022).
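Further: peptides expressed intracellularly from a pBAD plasmid library in pooled LB shake-flask culture, induced with 0.3% L-arabinose, DNA abundance read by NGS, three biological replicates, DESeq2 with apeglm shrinkage.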

The test system of the series is Escherichia coli TOP10. In words: shrunken log2 fold change of peptide-encoding DNA abundance (4.5 h post-induction vs induction); higher = less antimicrobial activity (less host growth inhibition). The note with it: time post-induction: 4.5 h; library: site-saturation at positions 5, 18, 19, 20.
In the case of RRIRGRPPRLPRPRPRPLKRPRP, the “shrunken log2 fold change” value came out at 0.216.

Turning to RRIRYRPPRLPRPRPRPQKRPRP, the “shrunken log2 fold change” value is -0.0426.

As for RRIRWRPPRLPRPRPRPWMQPRP, the “shrunken log2 fold change” value was -0.147.

For RRIRARPPRLPRPRPRPIVPPRP, the “shrunken log2 fold change” value came out at 0.0453.

As for RRIRERPPRLPRPRPRPIWIPRP, the “shrunken log2 fold change” value is -0.222.

RRIRPRPPRLPRPRPRPGMYPRP: the “shrunken log2 fold change” value was -0.0544.

For RRIRCRPPRLPRPRPRPDKNPRP, the “shrunken log2 fold change” value was -0.369.

As for RRIRERPPRLPRPRPRPATKPRP, the “shrunken log2 fold change” value came to 0.156.

In the case of RRIRKRPPRLPRPRPRPVALPRP, the “shrunken log2 fold change” value is -0.0167.

In the case of RRIRDRPPRLPRPRPRPKWYPRP, the “shrunken log2 fold change” value is -0.0377.

RRIRSRPPRLPRPRPRPEGFPRP: the “shrunken log2 fold change” value came out at 0.272.

As to RRIRQRPPRLPRPRPRPVYTPRP, the “shrunken log2 fold change” value was -0.143.

For RRIRMRPPRLPRPRPRPMVSPRP, the “shrunken log2 fold change” value was found to be 0.0423.

For the sequence RRIRNRPPRLPRPRPRPVKQPRP, the “shrunken log2 fold change” value stood at 0.00788.

As to RRIRKRPPRLPRPRPRPQGPPRP, the “shrunken log2 fold change” value is 0.053.

For RRIRSRPPRLPRPRPRPDVDPRP, the “shrunken log2 fold change” value was determined as 0.0112.

As to RRIRNRPPRLPRPRPRPFAGPRP, the “shrunken log2 fold change” value is 0.0411.

For RRIRHRPPRLPRPRPRPETHPRP, the “shrunken log2 fold change” value worked out at 0.0411.

Take RRIRLRPPRLPRPRPRPVSPPRP: the “shrunken log2 fold change” value was -0.00493.

RRIRYRPPRLPRPRPRPCWTPRP: the “shrunken log2 fold change” value was -0.374.

In the case of RRIRARPPRLPRPRPRPWTRPRP, the “shrunken log2 fold change” value is 0.27.

Regarding RRIRYRPPRLPRPRPRPTPGPRP, the “shrunken log2 fold change” value is -0.0705.

On to RRIRRRPPRLPRPRPRPDNNPRP, for which the “shrunken log2 fold change” value was -0.187.

Take RRIRERPPRLPRPRPRPDQFPRP: the “shrunken log2 fold change” value is -0.154.

RRIRTRPPRLPRPRPRPDSSPRP: the “shrunken log2 fold change” value was -0.00751.

For the sequence RRIRRRPPRLPRPRPRPILSPRP, the “shrunken log2 fold change” value worked out at 0.246.

For the sequence RRIRWRPPRLPRPRPRPVQFPRP, the “shrunken log2 fold change” value worked out at 0.0316.

Turning to RRIRLRPPRLPRPRPRPHWAPRP, the “shrunken log2 fold change” value was -0.177.

Regarding RRIRGRPPRLPRPRPRPFKVPRP, the “shrunken log2 fold change” value is -0.14.

In the case of RRIRSRPPRLPRPRPRPHQIPRP, the “shrunken log2 fold change” value turned out to be 0.0975.

For RRIRQRPPRLPRPRPRPASPPRP, the “shrunken log2 fold change” value was -0.0456.

For RRIRLRPPRLPRPRPRPNCKPRP, the “shrunken log2 fold change” value was -0.143.

Take RRIRPRPPRLPRPRPRPRRFPRP: the “shrunken log2 fold change” value turned out to be 0.0399.

In the case of RRIRFRPPRLPRPRPRPVWGPRP, the “shrunken log2 fold change” value stood at 0.311.

Turning to RRIRKRPPRLPRPRPRPKPWPRP, the “shrunken log2 fold change” value turned out to be 0.526.

Regarding RRIRFRPPRLPRPRPRPDGSPRP, the “shrunken log2 fold change” value was -0.0167.

Regarding RRIRCRPPRLPRPRPRPAMMPRP, the “shrunken log2 fold change” value was -0.0414.

As to RRIRTRPPRLPRPRPRPAIEPRP, the “shrunken log2 fold change” value came to 0.0358.

Regarding RRIRSRPPRLPRPRPRPRGWPRP, the “shrunken log2 fold change” value amounted to 0.624.

RRIRHRPPRLPRPRPRPEYGPRP: the “shrunken log2 fold change” value is -0.0913.

RRIRGRPPRLPRPRPRPETYPRP: the “shrunken log2 fold change” value turned out to be 0.569.

RRIRQRPPRLPRPRPRPFKLPRP: the “shrunken log2 fold change” value was -0.152.

With RRIRPRPPRLPRPRPRPGTNPRP, the “shrunken log2 fold change” value was 1.46.

For the sequence RRIRSRPPRLPRPRPRPFQKPRP, the “shrunken log2 fold change” value is -0.00295.

Consider RRIRHRPPRLPRPRPRPKARPRP, for which the “shrunken log2 fold change” value is -0.00317.

Take RRIRMRPPRLPRPRPRPQPMPRP: the “shrunken log2 fold change” value stood at 0.838.

On to RRIRDRPPRLPRPRPRPWYDPRP, for which the “shrunken log2 fold change” value is -0.6.

Take RRIRHRPPRLPRPRPRPHWLPRP: the “shrunken log2 fold change” value was -0.123.

With RRIRYRPPRLPRPRPRPYDQPRP, the “shrunken log2 fold change” value is -0.124.

RRIRTRPPRLPRPRPRPHWEPRP: the “shrunken log2 fold change” value was -0.171.

RRIRDRPPRLPRPRPRPPNVPRP: the “shrunken log2 fold change” value was -0.0362.

Take RRIRQRPPRLPRPRPRPELNPRP: the “shrunken log2 fold change” value amounted to 0.0915.

In the case of RRIRARPPRLPRPRPRPCSDPRP, the “shrunken log2 fold change” value came out at 0.431.

Consider RRIRWRPPRLPRPRPRPVDKPRP, for which the “shrunken log2 fold change” value was -0.0524.

Regarding RRIRGRPPRLPRPRPRPVKKPRP, the “shrunken log2 fold change” value was 0.949.

RRIRIRPPRLPRPRPRPMTYPRP: the “shrunken log2 fold change” value was -0.0592.

Consider RRIRLRPPRLPRPRPRPYTWPRP, for which the “shrunken log2 fold change” value was -0.716.

With RRIRNRPPRLPRPRPRPPMGPRP, the “shrunken log2 fold change” value is -0.0346.

RRIRNRPPRLPRPRPRPTPDPRP: the “shrunken log2 fold change” value stood at 0.17.

Turning to RRIRERPPRLPRPRPRPHCSPRP, the “shrunken log2 fold change” value was -0.279.

Consider RRIRARPPRLPRPRPRPNRDPRP, for which the “shrunken log2 fold change” value was -0.183.

As for RRIRKRPPRLPRPRPRPEPAPRP, the “shrunken log2 fold change” value worked out at 1.45.

As for RRIRQRPPRLPRPRPRPGDVPRP, the “shrunken log2 fold change” value was -0.222.

In the case of RRIRFRPPRLPRPRPRPGMGPRP, the “shrunken log2 fold change” value came out at 0.102.

With RRIRKRPPRLPRPRPRPTVHPRP, the “shrunken log2 fold change” value turned out to be 0.467.

Consider RRIRARPPRLPRPRPRPVSTPRP, for which the “shrunken log2 fold change” value is -0.0272.

Take RRIRKRPPRLPRPRPRPFNHPRP: the “shrunken log2 fold change” value was -0.993.

Take RRIRLRPPRLPRPRPRPYRFPRP: the “shrunken log2 fold change” value came out at 0.0498.

For the sequence RRIRKRPPRLPRPRPRPACPPRP, the “shrunken log2 fold change” value turned out to be 0.664.

For the sequence RRIRYRPPRLPRPRPRPMLDPRP, the “shrunken log2 fold change” value was -0.467.

In the case of RRIRARPPRLPRPRPRPNHKPRP, the “shrunken log2 fold change” value is -0.351.

In the case of RRIRIRPPRLPRPRPRPSVDPRP, the “shrunken log2 fold change” value is -0.326.

On to RRIRIRPPRLPRPRPRPEPTPRP, for which the “shrunken log2 fold change” value was found to be 0.659.

As for RRIRKRPPRLPRPRPRPIGSPRP, the “shrunken log2 fold change” value was -0.0113.

With RRIRGRPPRLPRPRPRPRHTPRP, the “shrunken log2 fold change” value amounted to 0.7.

On to RRIRVRPPRLPRPRPRPTEYPRP, for which the “shrunken log2 fold change” value came out at 0.0465.

Regarding RRIRARPPRLPRPRPRPCWEPRP, the “shrunken log2 fold change” value turned out to be 0.755.

Consider RRIRERPPRLPRPRPRPWEAPRP, for which the “shrunken log2 fold change” value was 0.74.

Regarding RRIRARPPRLPRPRPRPHLHPRP, the “shrunken log2 fold change” value is 0.0371.

As for RRIRSRPPRLPRPRPRPTTDPRP, the “shrunken log2 fold change” value came out at 0.0457.

Turning to RRIRDRPPRLPRPRPRPVGSPRP, the “shrunken log2 fold change” value was 0.519.

For RRIRTRPPRLPRPRPRPYYDPRP, the “shrunken log2 fold change” value was -0.24.

RRIRCRPPRLPRPRPRPPILPRP: the “shrunken log2 fold change” value is -0.501.

With RRIRSRPPRLPRPRPRPVYVPRP, the “shrunken log2 fold change” value is -0.525.

On to RRIRMRPPRLPRPRPRPLECPRP, for which the “shrunken log2 fold change” value was -0.0215.

Take RRIRERPPRLPRPRPRPQYVPRP: the “shrunken log2 fold change” value was -0.215.

For the sequence RRIRFRPPRLPRPRPRPEQWPRP, the “shrunken log2 fold change” value was -0.156.

In the case of RRIRHRPPRLPRPRPRPDRPPRP, the “shrunken log2 fold change” value was -0.184.

Take RRIRLRPPRLPRPRPRPQSMPRP: the “shrunken log2 fold change” value is -0.197.

Regarding RRIRERPPRLPRPRPRPWWHPRP, the “shrunken log2 fold change” value is -0.523.

RRIRDRPPRLPRPRPRPESNPRP: the “shrunken log2 fold change” value turned out to be 0.892.

On to RRIRDRPPRLPRPRPRPYRSPRP, for which the “shrunken log2 fold change” value is -0.142.

With RRIRGRPPRLPRPRPRPPCVPRP, the “shrunken log2 fold change” value was 1.15.

As to RRIRPRPPRLPRPRPRPGFNPRP, the “shrunken log2 fold change” value is -0.173.

In the case of RRIRKRPPRLPRPRPRPLQSPRP, the “shrunken log2 fold change” value is 0.295.

For RRIRIRPPRLPRPRPRPKHDPRP, the “shrunken log2 fold change” value was -0.463.

Consider RRIRTRPPRLPRPRPRPVKSPRP, for which the “shrunken log2 fold change” value is -0.157.

On to RRIRNRPPRLPRPRPRPRSQPRP, for which the “shrunken log2 fold change” value was -0.0986.

As for RRIRARPPRLPRPRPRPDRDPRP, the “shrunken log2 fold change” value is -0.0499.

Take RRIRMRPPRLPRPRPRPVSAPRP: the “shrunken log2 fold change” value turned out to be 0.617.

As for RRIRQRPPRLPRPRPRPESPPRP, the “shrunken log2 fold change” value was determined as 0.0606.

With RRIRTRPPRLPRPRPRPWYPPRP, the “shrunken log2 fold change” value was -0.255.

Consider RRIRKRPPRLPRPRPRPAFIPRP, for which the “shrunken log2 fold change” value stood at 0.129.

With RRIRARPPRLPRPRPRPVGTPRP, the “shrunken log2 fold change” value came out at 0.441.

Regarding RRIRMRPPRLPRPRPRPTQEPRP, the “shrunken log2 fold change” value worked out at 0.433.

For RRIRCRPPRLPRPRPRPFFCPRP, the “shrunken log2 fold change” value was -0.132.

As to RRIRMRPPRLPRPRPRPPSDPRP, the “shrunken log2 fold change” value came out at 1.06.

Regarding RRIRGRPPRLPRPRPRPNLDPRP, the “shrunken log2 fold change” value is 0.265.

Consider RRIRTRPPRLPRPRPRPKGSPRP, for which the “shrunken log2 fold change” value is -0.0414.

RRIRKRPPRLPRPRPRPVKRPRP: the “shrunken log2 fold change” value turned out to be 0.0121.

RRIRGRPPRLPRPRPRPWVFPRP: the “shrunken log2 fold change” value was determined as 0.758.

Regarding RRIRLRPPRLPRPRPRPAPCPRP, the “shrunken log2 fold change” value amounted to 0.0424.

For the sequence RRIRHRPPRLPRPRPRPEADPRP, the “shrunken log2 fold change” value was -0.00192.

With RRIRERPPRLPRPRPRPNYRPRP, the “shrunken log2 fold change” value is -0.000813.

In the case of RRIRGRPPRLPRPRPRPGLPPRP, the “shrunken log2 fold change” value is 0.747.

As for RRIRNRPPRLPRPRPRPSLSPRP, the “shrunken log2 fold change” value is -0.205.

Take RRIRGRPPRLPRPRPRPQACPRP: the “shrunken log2 fold change” value was determined as 0.27.

With RRIRCRPPRLPRPRPRPPKQPRP, the “shrunken log2 fold change” value was determined as 0.123.

On to RRIRARPPRLPRPRPRPCSKPRP, for which the “shrunken log2 fold change” value came to 0.0365.

In the case of RRIRARPPRLPRPRPRPDDEPRP, the “shrunken log2 fold change” value is 1.43.

Turning to RRIRVRPPRLPRPRPRPNAKPRP, the “shrunken log2 fold change” value stood at 0.328.

As to RRIRYRPPRLPRPRPRPLKFPRP, the “shrunken log2 fold change” value was -0.42.

RRIRRRPPRLPRPRPRPIVHPRP: the “shrunken log2 fold change” value was -0.0757.

For RRIRSRPPRLPRPRPRPPAKPRP, the “shrunken log2 fold change” value amounted to 1.05.

Turning to RRIRDRPPRLPRPRPRPVCYPRP, the “shrunken log2 fold change” value was -0.0717.
